Legend:
[1] = system: GSK-3 beta; assay: In ovo tau phosphorylation assay: GSK-3 beta and Xaxin constructs co-expressed in Xenopus oocytes; assay type: cell-based; details: construct co-expressed with GSK-3 beta in Xenopus oocytes; tau microinjected; PHF-1 immunoblot
Method: Stage VI Xenopus oocytes were isolated by collagenase treatment (Smith et al., 1994, Meth. Cell Biol. 36:45-58) and were injected with mRNA prepared by in vitro transcription (mMessage Machine™; Ambion, Austin, Tex.). 10 nanoliters of mRNA (containing 1-2 nanograms per nanoliter) was injected for each construct (unless otherwise specified), and the injected oocytes were incubated for 16 hours at 18° C. To analyze the effects of Xaxin constructs on dorsal-ventral pattern formation, Xenopus embryos were injected with 10 nanoliters of mRNA (0.1-0.2 nanogram per nanoliter) into one dorsal or ventral cell of a 4 cell embryo and dorsal axes were assessed at the tadpole stage. For Xaxin co-immunoprecipitation, fertilized eggs were injected with 10 nanoliters of Xaxin tagged with Myc, with hemagglutinin, or with both Myc and hemagglutinin (1 nanogram per nanoliter) and harvested at the blastula stage (stage 8).
In ovo phosphorylation of tau by GSK-3 beta was performed by microinjection of tau protein into oocytes expressing GSK-3 beta and Xaxin constructs. After 90 minutes, oocytes were homogenized and tau phosphorylation was analyzed in western blots using phospho-specific antibodies as described (Hedgepeth et al., 1997, Develop. Biol. 185:82-91). In vitro assays for GSK-3 beta activity were performed as described (Klein et al., 1996, Proc. Natl. Acad. Sci. USA 93:8455-8459). Recombinant GID-2/his protein (described below) was purified by affinity chromatography and added to in vitro assays at selected concentrations.
In the experiments presented in this example, a tau phosphorylation assay (described in Hedgepeth et al., 1997, Develop. Biol. 185:82-91) was used to examine the activity of GSK-3 beta in Xenopus oocytes in the presence of full length axin and axin deletion mutants. […] Furthermore, GSK-3 beta-dependent tau phosphorylation occurs in oocytes at the same sites (tau serine residues 396 and 404) that are phosphorylated by GSK-3 beta in vitro and occurs with similarly rapid kinetics.
GSK-3 beta was expressed in oocytes together with Myc-tagged full length Xaxin or with the amino-terminal (amino acid residues 63-288), GID-1 (amino acid residues 277-545), or carboxyl-terminal (amino acid residues 429-713) fragments of Xaxin, as depicted in FIG. 1A. Purified tau protein was then microinjected into the oocytes, and phosphorylation of tau was measured by immunoblotting using antibody PHF-1 or with antibodies that detect all (i.e. phosphorylated and non-phosphorylated) forms of tau.
In order to identify the domain of axin necessary for GSK-3 beta binding, multiple Myc-tagged GID deletion constructs (shown diagrammatically in FIG. 3A) were individually expressed in Xenopus oocytes in which GSK-3 beta was also expressed. Tau protein was microinjected into the oocytes, and immunoblotting was performed using phosphorylation-state-specific tau antibodies. A parallel group of oocytes expressing GSK-3 beta and the Myc-tagged GID deletion constructs were lysed, and GID proteins were immunoprecipitated using a Myc-specific antibody. The presence or absence of GSK-3 beta in GID immunoprecipitates was detected using GSK-3 beta-specific antibodies. GID deletion constructs which included amino acid residues 380-404 of Xaxin (i.e. constructs GID-1, GID-2, GID-4, GID-5, and GID-6) bound GSK-3 beta and inhibited GSK-3 beta mediated tau phosphorylation, as indicated in FIG. 3A. […] However, changing leucine residue 392 in FIG. 3B to proline abolishes its activity.

[2] = system: LEF-1 dependent transcription (wnt signaling); assay: LEF-luciferase reporter of wnt signaling in 293T cells; assay type: cell-based; details: 293T cells
Method: LEF-1 (also designated tcf) is a DNA-binding protein that also binds with beta-catenin. The beta-catenin/LEF-1 complex is known to activate transcription of wnt target genes. A genetic construct was made which comprised this LEF-1-binding promoter operably linked with a luciferase gene, for use as a reporter of wnt signaling.
Single plasmids encoding individual GID fragments were transfected into 293T cells, together with the LEF-luciferase reporter, and luciferase activity was measured after 24 hours. GID fragments induced up to 100- to 250-fold activation of LEF-luciferase (normalized to activity from the mutated LEF-reporter control, which was activated less than 2-fold).

[3] = system: Xenopus embryos; assay: Dorsal axis duplication / dorsalization in Xenopus embryos after mRNA injection; assay type: in vivo; details: 4 cell embryo
[4] = target: T1, FL Xaxin (Xenopus laevis, UniProt Q9YGY0); assay: Yeast two hybrid assay, interaction with FL Xaxin; assay type: binding; details: beta-galactosidase filter assay in S. cerevisiae
T1 construct: expressed in transfected cells; host or cells: Saccharomyces cerevisiae
Text: (§1) FL Xaxin was cloned in frame with the GAL4 DNA binding domain (BD) in plasmid pAS2-1 (Clontech) to yield BD plasmid. Expression of BD plasmid yielded a Xaxin-GAL4 fusion protein. FL Xaxin, deltaDIX Xaxin, and a fragment (designated “AID”) encoding amino acid residues 489-777 of Xaxin were cloned in frame with the GAL4 transcriptional activation domain (AD) in the vector pACT2 to yield AD plasmids. Yeast were transformed with BD and AD plasmids using previously described protocols (Clontech, Palo Alto, Calif.). Transformed colonies were selected and assayed for beta-galactosidase activity in order to detect interacting proteins. In addition, three Xenopus axin partial length cDNAs (designated Y2H 2, Y2H 6, Y2H 7; all in plasmid pACT2) isolated from a previous yeast two hybrid screen (Hedgepeth et al., 1999, Mech. Develop. 80:147-151) were analyzed. Purification of GID
(§2) Using the yeast two hybrid assay, the ability of axin to bind with itself, with other members of the wnt pathway, or with the G(alpha)q subunit of heterotrimeric G-proteins, was investigated. […]
(§3) Saccharomyces cerevisiae cells were transformed with the bait vector and with one of the target vectors. Interaction was assessed using a filter assay to detect beta-galactosidase activity, as described (Fields et al., 1989, Nature 340:245-247; Harper et al., 1993, Cell 75:805-816). […]

[5] = system: disheveled; assay: Yeast two hybrid assay, interaction with disheveled; assay type: binding; details: beta-galactosidase filter assay in S. cerevisiae
Text: as §1, §2, §3

[6] = target: T2, carboxyl-terminal fragment of Xenopus frizzled 7 (Xenopus laevis, UniProt Q9PUK8); assay: Yeast two hybrid assay, interaction with frizzled 7 fragment; assay type: binding; details: beta-galactosidase filter assay in S. cerevisiae
T2 sequence (Q9PUK8 525-549 limits assumed): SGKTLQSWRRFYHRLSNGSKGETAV
Text: as §1, §2, §3

[7] = target: T3, axin (Xenopus laevis, UniProt Q9YGY0); assay: Co-immunoprecipitation of myc-tagged and HA-tagged axin in Xenopus embryos; assay type: binding
T3 construct: Full length (FL) Xaxin was assembled into plasmid CS2MT using restriction fragments of partial cDNA clones; expressed in transfected cells; host or cells: Xenopus embryos (fertilized eggs injected with mRNA, harvested at stage 8)

B1: full length Xaxin: full length Xenopus axin, amino acid residues 1-842 (SEQ ID NO: 8) (protein, listed as Xenopus laevis)
chain: MSVKGKGFPLDLGGSFTEDAPRPPVPGEEGELITTDQRPFSHTYYSLKNDGIKNETSTATPRRPDLDLGYEPEGSASPTPPYLKWAESLHSLLDDQDGIHLFRTFLQQENCADLLDFWFACSGFRKLEPNDSKVEKRLKLAKAIYKKYVLDSNGIVSRQIKPATKSFIKDCVLRQQIDPAMFDQAQMEIQSMMEDNTYPVFLKSDIYLEYTTIGGESPKNYSDQSSGSGTGKGPSGYLPTLNEDEEWRCDQGGEHERERECIPSSLFSQKLALDSSSHCAGSNRRLSDGREFRPGTWREPVNPYYVNTGYAGAPVTSANDSEQQSMSSDADTMSLTDSSVDGIPPYRLRKHYRREMQESANANGRGPLPHIPRTYHMPKDIHVDPEKFAAELISRLEGVLRDREAEQKLEERLKRVRAEEEGDDGDVSSGPSVISHKLPSGPPMHHFNSRYSETGCVGMQIRDAHEENPESILDEHVQRVMKTPGCQSPGTGRHSPKSRSPDGHLSKTLPGSLGTMQTGHGKHSSKSTAKVDSGNLHHHKHVYHHVHHHGGVKPKEQIDGESTQRVQTNFPWNVESHNYATKSRNYAESMGMAPNPMDSLAYSGKVSMLSKRNAKKADLGKSESASHEMPVVPEDSERHQKILQWIMEGEKEIIRHKKSNHSSSSAKKQPPTELARPLSIERPGAVHPWVSAQLRNVVQPSHPFIQDPTMPPNPAPNPLTQLVSKPGARLEEEEKKAAKMPQKQRLKPQKKNVSAPSQPCDNIVVAYYFCGEPIPYRTMVKGRVVTLGQFKELLTKKGNYRYYFKKVSDEFDCGVVFEEVREDDMILPIYEEKIIGQVEKID
GSK-3 beta-mediated tau phosphorylation (GSK-3 beta activity) [1]: no discernible effect
activation of wnt signaling (LEF-1-binding promoter luciferase reporter) [2]: not
effect on axial development ([3]; mRNA injected or expressed dorsally): caused ventralization
secondary / ectopic axis formation ([3]; mRNA injected or expressed ventrally, scored at tadpole stage): induced formation of ectopic cement glands
interaction with FL Xaxin (self-interaction) [4]: interacted strongly
interaction with disheveled [5]: did not interact
interaction with carboxyl-terminal fragment of Xenopus frizzled 7 [6]: did not interact
axin self-interaction (co-immunoprecipitation) [7]: interacts with itself
